Test: label from the status in PepcDB records
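Note: failed if final PepcDB status was selected cloned or expressed and not failed if soluble or beyond.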

| Sequence | protein production |
| --- | --- |
| MISLKNFGLLFWKRFSENKLNQVAGALTYSTMLAMVPLVMVIFSIFSAFPVFNEVTGELKEMIFTNFAPSASDMVGEYIDQFVSNSKKMSAVGIVSLIAVALMLINNIDRTLNSIWHNSQSRSPLSSFAIYWMILTLGPLIIGVSIGISSYIKIMFEQSEHLSLGLKLLSFVPFLFTWFIFTLIYTVVPNKKVKIKHSAYGAFLAAIFFTLGKQAFTWYIVTFPSYQLIYGAMATLPIMLLWIQISWLVVLVGAQLASTLDEIGEQIEQ | failed |
| SSDASKVTSKGAGLSKAFVGQKSSFLVDCSKAGSNMLLIGVHGPTTPCEEVSMKHVGNQQYNVTYVVKERGDYVLAVKWGEEHIPGSPFHVTVP | not failed |
| MAVWLKLSLIVLCGCLSCWVGSVWAQPPLPGFAALSAGQYPLADRQLSQAIAHGKATAALYGNRCWVRLSLERYEEAIKDCSVALDLQPHEPETWLNRGLAYYRQGQSQAAIADFDQLLQQSPTDYRAYYNRGLAYLDLAQPEQAIADFQQALERLPATEIGAAVDLHTDRCMGELHRAQPGPAVSACSQALELQPSAARARYLRALAYWQLHQPQAAIADLRQACDAFAQAGATVQLDRARQLLQHWQQQSSLVAQAPRLQSKNWPGAVTYAMDLANCHDRSPLNELEFCCDRAFQQC | failed |
| MIDPREPIVTPVPVEELRPTQITVGMREVALKRQMIREQDAKKKTGAFLGKHMVPVVLGPKNRNYVTDHHHLARALLEEGVKDVLVTVISDLSALDKDTFLFVLDNRGWMHPFDESGRRRDYSAIPKTIGELIDDPYRSMAGELRRMGGFAKDTTPFSEFIWADFLRRRIDRNAVAKNFDKAMKEALSLAKGKDADYLPGWCGPTSDLEHHHHHH | not failed |
| MQTFAPGTRVYHLIIIVFFFFFCLSSFFASIVMADEYTGEATGSSEAKVHIIYTEKPTDEEPKTYHLRTLSSALGSEEAAKDALIYSYKEAASGFSAKLTPEQVAEISKQPGVIQVVPSQTYQLHKPGGGGGFKLT | failed |
| MLPTKINLIRLRRELAMLRRIRRVMEEKREVILHYITSMAAEYVRYQREVYSELERIYQNYYLGVAAEGIERARAFTAPAEGSLEVDVSTRTLFAVKTPVFSLREETVPPLPLPAGSDPKLVQSILDMRSILDKLLKLAEYEETLQRLISELKDTQRLINALDYVILPSYQNAIKFIKLVLEDRMREDFVRLKIIKRKMEAKTQLEHHHHHH | not failed |
| MADRPIEIVDRQNVLTVHLPGTYTVMYDARYCYVSYIPVSETVAEFTLTGFKYPLTNCHISRGSTLCISNELIQSSGTFSFSEGILMMIRSSDSLEHHHHHH | failed |
| MRSQALRADVLMLITAVIWGSAFVAQTSGMNHIGPFLYSGLRFALGSLCLLPLVLRKTPTDRQPEPLLNRGLLLGGVLMGLALALGINLQQVGLMFTTVTNAGFITGLYVIVVPLLGLLIGHKTGLGTWLGAVLAVVGMFLLSVSDSFHVASGDWLQLIGAFVWGGHVILVGVFAGRHDPIRLAFLQFATCAVVSLILALCLEPLRWEAIVGAGPAILYGGVVAVGIGYTLQVIAQKDAIASHAAIILSLEAVFAAIAGAWLLDESLQARGYFGCALMLSGMLVAQLWPQKPHSSTTTQRA | failed |
| MSAGEHAGGVFLGGIAIDEPTREAARAMVDRDREEFLPADPVAWVDDQLSELDDAFLRPAVNVRAVRLGPLRDVAAVCAAHDAILEVNAHCRQDELCDAGAGETLLRDTSRLCEQVRAASDEGAAVSVKVRAGVQGVHLPVLAQAIERAGAAAIHVDAMDSRRVVRDVADATALFVVANNGVRTRDDVFEYLSYGADAVSVGRPSRDPERVRAVYAAVKEWLL | failed |
| MWTVLIINLLIAIVLTYFGLKERNENFSWFTASGAFIVFGLILLISTIPVFNDFNESSLLMFIGGILSILGIITLIIGLVTRAVKIVSLRDVAIAMEIAAVCVIYLIHNLDLSFINLFVPELSVIIGFLLFVFSRKKN | failed |
| MNSDPTRERILHGLITLYILKELVKRPMHGYELQKSMFETTGQALPQGSIYILLKTMKERGFVISESSVNEKGQQLTVYHITDAGKKFLCDHSQALQLARKIIDDLLSTVDIIENRN | not failed |
